Assay results published in patent US20240400715A1 (VIBRANT PHARMA, published 2024).
Numbering of substitutions follows the chain as printed.

B1: 201 (CEA-Fab-Knob-+Hole) (bispecific antibody, human IgG4 S228P, kappa, F234A L235A)
heavy: EVKLLESGGGLVQPKGSLKLSCAASGFTFNTYAMNWVRQAPGKGLEWVARIRSKYNNYATYYADSVKDRFTISRDDSQSILYLQMNNLKTEDTAMYYCVRHGNFGNSYVSWFAYWGQGTLVTVSSASTKGPSVFPLAPCSRSTSESTAALGCLVKDYFPEPVTVSWNSGALTSGVHTFPAVLQSSGLYSLSSVVTVPSSSLGTKTYTCNVDHKPSNTKVDKRVESKYGPPCPPCPAPEAAGGPSVFLFPPKPKDTLMISRTPEVTCVVVDVSQEDPEVQFNWYVDGVEVHNAKTKPREEQFNSTYRVVSVLTVLHQDWLNGKEYKCKVSNKGLPSSIEKTISKAKGQPREPQVYTLPPCQEEMTKNQVSLWCLVKGFYPSDIAVEWESNGQPENNYKTTPPVLDSDGSFFLYSRLTVDKSRWQEGNVFSCSVMHEALHNHYTQKSLSLSL
chain: ESKYGPPCPPCPAPEAAGGPSVFLFPPKPKDTLMISRTPEVTCVVVDVSQEDPEVQFNWYVDGVEVHNAKTKPREEQFNSTYRVVSVLTVLHQDWLNGKEYKCKVSNKGLPSSIEKTISKAKGQPREPQVCTLPPSQEEMTKNQVSLSCAVKGFYPSDIAVEWESNGQPENNYKTTPPVLDSDGSFFLVSRLTVDKSRWQEGNVFSCSVMHEALHNRFTQKSLSLSL
light: QAVVTQESALTTSPGETVTLTCRSSTGAVTTSNYANWVQEKPDHLFTGLIGGTNKRAPGVPARFSGSLIGDKAALTITGAQTEDEAIYFCALWYSNLWVFGGGTKVEIKRTVAAPSVFIFPPSDEQLKSGTASVVCLLNNFYPREAKVQWKVDNALQSGNSQESVTEQDSKDSTYSLSSTLTLSKADYEKHKVYACEVTHQGLSSPVTKSFNRGECGGGGSGGGGSEVQLVESGGGFVQAGESLTLSCTSSTLTFTPYRMAWYRQAPGKQRDLVADISSGDGRTTNYADFAKGRFTISRDNIKNTVFLRMTNLKPEDTAVYYCNTFVSFVGIARSWGQGTQVTVSS
notes: VHH fused after CL of the light chain
B2: 204 (Knob+CEA-Fab-Hole) (bispecific antibody, human IgG4 S228P, kappa, F234A L235A)
chain: B1 chain with C131Y, S136C, S148W, A150L, V189Y, R217H, F218Y
heavy: B1 heavy with Y354C, C359S, W371S, L373A, Y412V, H440R, Y441F
light: EVQLVESGGGFVQAGESLTLSCTSSTLTFTPYRMAWYRQAPGKQRDLVADISSGDGRTTNYADFAKGRFTISRDNIKNTVFLRMTNLKPEDTAVYYCNTFVSFVGIARSWGQGTQVTVSSGGGGSGGGGSQAVVTQESALTTSPGETVTLTCRSSTGAVTTSNYANWVQEKPDHLFTGLIGGTNKRAPGVPARFSGSLIGDKAALTITGAQTEDEAIYFCALWYSNLWVFGGGTKVEIKRTVAAPSVFIFPPSDEQLKSGTASVVCLLNNFYPREAKVQWKVDNALQSGNSQESVTEQDSKDSTYSLSSTLTLSKADYEKHKVYACEVTHQGLSSPVTKSFNRGEC
notes: VHH fused before VL of the light chain
B3: 202 (Knob+CEA-Fab-Hole) (bispecific antibody, human IgG4 S228P, kappa, F234A L235A)
chain: B1 chain with C131Y, S136C, S148W, A150L, V189Y, R217H, F218Y
heavy: B1 heavy with Y354C, C359S, W371S, L373A, Y412V, H440R, Y441F
light: B1 light
notes: as for B1
B4: 203 (CEA-Fab-Knob-+Hole) (bispecific antibody, human IgG4 S228P, kappa, F234A L235A)
heavy: B1 heavy
chain: B1 chain
light: B2 light
notes: as for B2
B5: 205 (CEA-Fab-Knob-+Hole) (bispecific antibody, human IgG4 S228P, kappa, F234A L235A)
heavy: EVQLVESGGGFVQAGESLTLSCTSSTLTFTPYRMAWYRQAPGKQRDLVADISSGDGRTTNYADFAKGRFTISRDNIKNTVFLRMTNLKPEDTAVYYCNTFVSFVGIARSWGQGTQVTVSSGGGGSGGGGSEVKLLESGGGLVQPKGSLKLSCAASGFTFNTYAMNWVRQAPGKGLEWVARIRSKYNNYATYYADSVKDRFTISRDDSQSILYLQMNNLKTEDTAMYYCVRHGNFGNSYVSWFAYWGQGTLVTVSSASTKGPSVFPLAPCSRSTSESTAALGCLVKDYFPEPVTVSWNSGALTSGVHTFPAVLQSSGLYSLSSVVTVPSSSLGTKTYTCNVDHKPSNTKVDKRVESKYGPPCPPCPAPEAAGGPSVFLFPPKPKDTLMISRTPEVTCVVVDVSQEDPEVQFNWYVDGVEVHNAKTKPREEQFNSTYRVVSVLTVLHQDWLNGKEYKCKVSNKGLPSSIEKTISKAKGQPREPQVYTLPPCQEEMTKNQVSLWCLVKGFYPSDIAVEWESNGQPENNYKTTPPVLDSDGSFFLYSRLTVDKSRWQEGNVFSCSVMHEALHNHYTQKSLSLSL
chain: B1 chain
light: QAVVTQESALTTSPGETVTLTCRSSTGAVTTSNYANWVQEKPDHLFTGLIGGTNKRAPGVPARFSGSLIGDKAALTITGAQTEDEAIYFCALWYSNLWVFGGGTKVEIKRTVAAPSVFIFPPSDEQLKSGTASVVCLLNNFYPREAKVQWKVDNALQSGNSQESVTEQDSKDSTYSLSSTLTLSKADYEKHKVYACEVTHQGLSSPVTKSFNRGEC
notes: VHH fused before VH of the heavy chain
B6: 206 (Knob+CEA-Fab-Hole) (bispecific antibody, human IgG4 S228P, kappa, F234A L235A)
chain: B1 chain with C131Y, S136C, S148W, A150L, V189Y, R217H, F218Y
heavy: B5 heavy with Y484C, C489S, W501S, L503A, Y542V, H570R, Y571F
light: B5 light
notes: as for B5
B7: 112 (Knob-CEA+Hole-Fab) (bispecific antibody, human IgG4 S228P, kappa, F234A L235A)
chain: ESKYGPPCPPCPAPEAAGGPSVFLFPPKPKDTLMISRTPEVTCVVVDVSQEDPEVQFNWYVDGVEVHNAKTKPREEQFNSTYRVVSVLTVLHQDWLNGKEYKCKVSNKGLPSSIEKTISKAKGQPREPQVYTLPPCQEEMTKNQVSLWCLVKGFYPSDIAVEWESNGQPENNYKTTPPVLDSDGSFFLYSRLTVDKSRWQEGNVFSCSVMHEALHNHYTQKSLSLSLGGGGSGGGGSEVQLVESGGGFVQAGESLTLSCTSSTLTFTPYRMAWYRQAPGKQRDLVADISSGDGRTTNYADFAKGRFTISRDNIKNTVFLRMTNLKPEDTAVYYCNTFVSFVGIARSWGQGTQVTVSS
heavy: ESKYGPPCPPCPAPEAAGGPSVFLFPPKPKDTLMISRTPEVTCVVVDVSQEDPEVQFNWYVDGVEVHNAKTKPREEQFNSTYRVVSVLTVLHQDWLNGKEYKCKVSNKGLPSSIEKTISKAKGQPREPQVCTLPPSQEEMTKNQVSLSCAVKGFYPSDIAVEWESNGQPENNYKTTPPVLDSDGSFFLVSRLTVDKSRWQEGNVFSCSVMHEALHNRFTQKSLSLSLGGGGSGGGGSEVKLLESGGGLVQPKGSLKLSCAASGFTFNTYAMNWVRQAPGKGLEWVARIRSKYNNYATYYADSVKDRFTISRDDSQSILYLQMNNLKTEDTAMYYCVRHGNFGNSYVSWFAYWGQGTLVTVSSASTKGPSVFPLAPCSRSTSESTAALGCLVKDYFPEPVTVSWNSGALTSGVHTFPAVLQSSGLYSLSSVVTVPSSSLGTKTYTCNVDHKPSNTKVDKRV
light: B5 light
notes: TA1 Fab, C17 VHH, IgG4 Fc KIH

Target: T1, human CD3ε/δ (ACRO systems, CDD-H52W1) (human, UniProt P07766 23-126; P04234 22-105)
T1 construct: bought recombinant heterodimer; also called human CD3 epsilon/delta; Human CD3ε/CD3δ
Test: serum-stability ELISA, Day 0 (reference)

| Binding % [%] | Binder |
| --- | --- |
| 100 | B1 |
| 100 | B2 |
| 100 | B3 |
| 100 | B4 |
| 100 | B5 |
| 100 | B6 |

Target: T1, human CD3ε/δ (ACRO systems, CDD-H52W1)
Test: serum-stability ELISA, Day 7 vs Day 0
Protocol: (§1) The samples to be tested were centrifuged at 4° C. at 12000 rpm for 30 minutes to remove the precipitate. 200 μl of each sample to be tested (0.5 mg/ml) was collected in a 1.5 ml Eppendorf tube. An equal volume of human serum (GEMINI, H2OYOOK) was added, mixed thoroughly, and the mixture was incubated in a 37° C. constant temperature CO₂ incubator. For a total of 10 days, 40 μl samples was aspirated every day and stored at −20° C.
(§2) Enzyme-linked immunosorbent assay (ELISA) was used to test the bispecific antibodies' binding to human CEA and human CD3 epsilon/delta antigen. The steps are as follows: the antigen human CD3ε/δ (ACRO systems, CDD-H52W1) and the recombinant tumor antigen human CEA (CEACAM-5/CD66e, ACRO systems, CE5-H5226) were diluted to 1 μg/ml with PBS, and then added to the 96-well plate at 100 μl per well. The wells were coated overnight at 4° C. After washing 3 times with 0.05% PBST, 200 μl 5% skimmed milk powder was added to each well and incubated at 37° C. for 2 h. After washing 3 times with 0.05% PBST, 100 μl primary antibody sample (10 μg/ml) was added to each well, and incubated at 37° C. for 2 h. After washing 3 times with 0.05% PBST, 100 μl (1:6000) diluted secondary antibody goat anti-human Fc-HRP (sigma, A2170) was added to each well, incubated at room temperature for 1 h. After washing 8 times with 0.05% PBST, 50 μl TMB color developing solution was added to each well, and incubated at room temperature for 10-15 min. 50 μl 1 mM HCl was added to each well to stop the color development. 450 nm Absorbance (OD) was read.
(§3) The binding of antibodies to antigen was calculated according to the following formula: Binding (%)=[(ODdayn−ODb)/(ODday0−ODb)]×100%. ODdayn: experimental well (the protein was stored in the serum for n days); ODday0: control well (the protein was not stored in the serum); ODb: blank well (no primary antibody added).

| Binding % [%] | Binder |
| --- | --- |
| 104 | B7 |

Target: T1, human CD3ε/δ (ACRO systems, CDD-H52W1)
Test: serum-stability ELISA, Day 1 vs Day 0
Protocol: as §1, §2, §3

| Binding % [%] | Binder |
| --- | --- |
| 99 | B7 |

Target: T1, human CD3ε/δ (ACRO systems, CDD-H52W1)
Test: serum-stability ELISA, Day 7 vs Day 0
Remark: another data set of the same source
Protocol: as §1, §2, §3

| Binding % [%] | Binder |
| --- | --- |
| 104 | B1 |
| 103 | B2 |
| 108 | B3 |
| 106 | B4 |
| 105 | B5 |
| 100 | B6 |

Target: T1, human CD3ε/δ (ACRO systems, CDD-H52W1)
Test: serum-stability ELISA, Day 2 vs Day 0
Protocol: as §1, §2, §3

| Binding % [%] | Binder |
| --- | --- |
| 102 | B7 |

Target: T1, human CD3ε/δ (ACRO systems, CDD-H52W1)
Test: serum-stability ELISA, Day 2 vs Day 0
Remark: another data set of the same source
Protocol: as §1, §2, §3

| Binding % [%] | Binder |
| --- | --- |
| 76.3 | B1 |
| 102 | B2 |
| 86.8 | B3 |
| 85.3 | B4 |
| 99.3 | B5 |
| 95.1 | B6 |

Target: T1, human CD3ε/δ (ACRO systems, CDD-H52W1)
Test: serum-stability ELISA, Day 5 vs Day 0
Protocol: as §1, §2, §3

| Binding % [%] | Binder |
| --- | --- |
| 105 | B1 |
| 99.8 | B2 |
| 110 | B3 |
| 102 | B4 |
| 117 | B5 |
| 102 | B6 |

Target: T1, human CD3ε/δ (ACRO systems, CDD-H52W1)
Test: serum-stability ELISA, Day 6 vs Day 0
Protocol: as §1, §2, §3

| Binding % [%] | Binder |
| --- | --- |
| 110 | B7 |

Target: T1, human CD3ε/δ (ACRO systems, CDD-H52W1)
Test: serum-stability ELISA, Day 9 vs Day 0
Protocol: as §1, §2, §3

| Binding % [%] | Binder |
| --- | --- |
| 102 | B7 |

Target: T1, human CD3ε/δ (ACRO systems, CDD-H52W1)
Test: serum-stability ELISA, Day 1 vs Day 0
Remark: another data set of the same source
Protocol: as §1, §2, §3

| Binding % [%] | Binder |
| --- | --- |
| 104 | B1 |
| 105 | B2 |
| 108 | B3 |
| 103 | B4 |
| 96.5 | B5 |
| 95.1 | B6 |

Target: T1, human CD3ε/δ (ACRO systems, CDD-H52W1)
Test: serum-stability ELISA, Day 10 vs Day 0
Protocol: as §1, §2, §3

| Binding % [%] | Binder |
| --- | --- |
| 98.8 | B1 |
| 99.4 | B2 |
| 99.1 | B3 |
| 101 | B4 |
| 105 | B5 |
| 91.6 | B6 |

Target: T1, human CD3ε/δ (ACRO systems, CDD-H52W1)
Test: serum-stability ELISA, Day 9 vs Day 0
Remark: another data set of the same source
Protocol: as §1, §2, §3

| Binding % [%] | Binder |
| --- | --- |
| 101 | B1 |
| 105 | B2 |
| 104 | B3 |
| 103 | B4 |
| 105 | B5 |
| 95.6 | B6 |

Target: T1, human CD3ε/δ (ACRO systems, CDD-H52W1)
Test: serum-stability ELISA, Day 0 (reference)
Remark: another data set of the same source
Protocol: as §1, §2, §3

| Binding % [%] | Binder |
| --- | --- |
| 100 | B7 |

Target: T1, human CD3ε/δ (ACRO systems, CDD-H52W1)
Test: serum-stability ELISA, Day 6 vs Day 0
Remark: another data set of the same source
Protocol: as §1, §2, §3

| Binding % [%] | Binder |
| --- | --- |
| 102 | B1 |
| 103 | B2 |
| 108 | B3 |
| 101 | B4 |
| 100 | B5 |
| 99.3 | B6 |

Target: T1, human CD3ε/δ (ACRO systems, CDD-H52W1)
Test: serum-stability ELISA, Day 10 vs Day 0
Remark: another data set of the same source
Protocol: as §1, §2, §3

| Binding % [%] | Binder |
| --- | --- |
| 98.4 | B7 |

Target: T1, human CD3ε/δ (ACRO systems, CDD-H52W1)
Test: serum-stability ELISA, Day 5 vs Day 0
Remark: another data set of the same source
Protocol: as §1, §2, §3

| Binding % [%] | Binder |
| --- | --- |
| 104 | B7 |
